From PMC10585395

Biological target: Regulatory ATPase variant A (RavA) (E. coli) (UniProt P31473)

ATPase activity of 0.5 uM RavA with equimolar full-length ViaA (ATP-NADH coupled assay): 3 fold
B1: von Willebrand factor type A interacting with AAA+ ATPase (ViaA) (natural protein)
chain: MLTLDTLNVMLAVSEEGLIEEMIIALLASPQLAVFFEKFPRLKAAITDDVPRWREALRSRLKDARVPPELTEEVMCYQQSQLLSTPQFIVQLPQILDLLHRLNSPWAEQARQLVDANSTITSALHTLFLQRWRLSLIVQATTLNQQLLEEEREQLLSEVQERMTLSGQLEPILADNNTAAGRLWDMSAGQLKRGDYQLIVKYGEFLNEQPELKRLAEQLGRSREAKSIPRNDAQMETFRTMVREPATVPEQVDGLQQSDDILRLLPPELATLGITELEYEFYRRLVEKQLLTYRLHGESWREKVIERPVVHKDYDEQPRGPFIVCVDTSGSMGGFNEQCAKAFCLALMRIALAENRRCYIMLFSTEIVRYELSGPQGIEQAIRFLSQQFRGGTDLASCFRAIMERLQSREWFDADAVVISDFIAQRLPDDVTSKVKELQRVHQHRFHAVAMSAHGKPGIMRIFDHIWRFDTGMRSRLLRRWRR
